Test results: article PMC5818740 (Protein Science : A Publication of the Protein Society, 2018)

Assays:
[1] = target: the molecule itself; assay: crystal structure; disulfide-bridged, bCPA-treated PICK1 PDZ-QS dimer with BIO124, seeded with PICK1 PDZ-QSAV crystals; 0.1 M BisTRIS pH 5.5, 25% PEG3350, 4°C; 1.75 Å
[2] = target: the molecule itself; assay: SEC; Superdex 75 in 25 mM TRIS-HCl pH 8.0, 250 mM NaCl, 5% glycerol, 2 mM DTT (reducing conditions)
[3] = target: the molecule itself; assay: crystal structure; disulfide-locked PICK1 PDZ-QSAV dimer, crystallised with 4.5 molar equivalents of BIO124; 0.1 M BisTRIS pH 5.5, 25% PEG3350, 4°C; 2.44 Å
[4] = target: T1, lysine-methylated dimeric PICK1 PDZ-QSAV (human | , UniProt Q9NRD5 1-105, surface lysines methylated with 19C-labeled formaldehyde (so in the source)); assay: NMR titration; 1H-13C HSQC of lysine-methylated dimeric PICK1 PDZ-QSAV with GluA2 peptide added; 40 mM sodium phosphate pH 6.8, 150 mM NaCl, 0.2 mM EDTA, DMSO, D2O; 298 K; conditions: both partners purified
T1 construct: human PICK1, residues 1 to 105, holding the PDZ domain; The methods say 'dimeric PICK1 PDZ-QSAV'; also called methylated PICK1 PDZ material; source: E. coli BL21 (DE3), purified; surface lysines methylated with labelled formaldehyde and sodium cyanoborohydride
T1 chain: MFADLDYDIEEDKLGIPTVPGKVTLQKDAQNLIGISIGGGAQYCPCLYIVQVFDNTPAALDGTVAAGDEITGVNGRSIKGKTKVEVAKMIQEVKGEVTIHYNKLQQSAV

B1: bCPA-treated PICK1 PDZ-QS (disulfide-bridged dimer, with BIO124) (domain or fragment)
chain: MFADLDYDIEEDKLGIPTVPGKVTLQKDAQNLIGISIGGGAQYCPCLYIVQVFDNTPAALDGTVAAGDEITGVNGRSIKGKTKVEVAKMIQEVKGEVTIHYNKLQQS
modifications: disulfide-bridged dimer
notes: human PICK1, residues 1 to 105, holding the PDZ domain; what is left of the fused PKCalpha QSAV tail after removal of the 0 and -1 position residues (AV) by carboxypeptidase A; Removal of AV was >95% by mass spectrometry; the small molecule BIO124 sits in the peptide groove of both chains; also called PICK1 PDZ-QS BIO124 complex; PICK1-PDZ-BIO124; source: E. coli BL21 (DE3), purified, oxidised …
binding result [1]: binds

B2: PICK1 PDZ-QSAV (unlocked, reduced dimer) (domain or fragment)
chain: MFADLDYDIEEDKLGIPTVPGKVTLQKDAQNLIGISIGGGAQYCPCLYIVQVFDNTPAALDGTVAAGDEITGVNGRSIKGKTKVEVAKMIQEVKGEVTIHYNKLQQSAV
notes: The His tag is TEV cleavable; no cleavage step is described; also called PICK1 PDZ-QSAV protein; source: E. coli BL21 (DE3), purified (nickel resin, Superdex 75)
stoichiometry N [2]: 2

B3: disulfide-bridged (locked) PICK1 PDZ-QSAV dimer (domain or fragment)
chain: MFADLDYDIEEDKLGIPTVPGKVTLQKDAQNLIGISIGGGAQYCPCLYIVQVFDNTPAALDGTVAAGDEITGVNGRSIKGKTKVEVAKMIQEVKGEVTIHYNKLQQSAV
modifications: intermolecular disulfides C44(A)-C46(B) and C44(B)-C46(A)
notes: human PICK1, residues 1 to 105, holding the PDZ domain; Same construct as m1 after oxidation; crystallised in the presence of BIO124, which was not seen in the structure; also called dimeric PICK1 PDZ-QSAV; oxidized dimer; source: E. coli BL21 (DE3), purified (nickel resin, Superdex 75), oxidised with 2.5 mM H2O2, Superdex 75
binding result [3]: binds

B4: wild type GluA2 peptide (VYGIESVKI) (peptide)
peptide: VYGIESVKI
notes: also called Wt GluR2 peptide; source: synthetic peptide, bought: New England Peptide
binding result [4]: binds
